Molecular target: Grb2 SH2 (UniProt P62993)
Experiment: SH2 binding enrichment of the phosphorylated peptide, bacterial display (enrichment ratio); higher = better substrate or ligand; peptides without Tyr show the background
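Throughout, for SH2 binding enrichment of the phosphorylated peptide, bacterial display: peptide library displayed on the E. coli surface as eCPX fusions, selected cells deep-sequenced, score is each peptide's frequency after selection divided by its frequency in the input.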

Grb2 SH2, sequence (P62993 whole entry, looked up): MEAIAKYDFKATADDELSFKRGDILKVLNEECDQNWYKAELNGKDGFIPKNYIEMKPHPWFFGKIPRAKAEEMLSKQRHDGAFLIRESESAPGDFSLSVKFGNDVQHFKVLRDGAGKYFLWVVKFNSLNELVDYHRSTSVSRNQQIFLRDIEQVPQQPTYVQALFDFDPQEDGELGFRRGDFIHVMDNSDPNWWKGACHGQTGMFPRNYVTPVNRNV

Sequence | SH2 binding enrichment
ERPGVHTNVVE [F11_Y608_Y608H] | 0.849
NMSRIYSTTKV [ACE_Y151_A154T] | 0.972
QDRTYYERVRT [SPEN_Y633_S635R] | 0.792
KMMGRYEMFAR [UPB1_Y362_T359M_YF] | 1.12
IMVFVYSRVFQ [ADRB2_Y219] | 1.12
LIDGFYRLTED [JAK2_Y373_A377E_YF] | 0.699
KMKGDYFCFLA [YWHAG_Y130_R132C_YF] | 0.854
RNIQQCNSFVS [PRKAR1A_Y373_Y373C] | 0.82
GLIPAYHRFIM [NMNAT1_Y64_V67F] | 1.39
CPFNLYAEQLS [HGD_Y40_YF] | 0.892
RISPEYKQNEI [GJB1_Y243_L239I] | 0.944
GDPTEYYITAI [IGSF22_Y501_S503I] | 0.647
RLGVTYEQALA [MAP2_Y996_G991R] | 0.848
YLQEIYNSNNQ [FGG_Y140] | 0.679
LNRAGYCDALE [MTUS1_Y151_C148R] | 0.773
TLQIMYGCDVG [HLA-A_Y123_I119L] | 0.851
EPNSRYTYKLE [USH2A_Y3745] | 1.02

Sequence | SH2 binding enrichment
EERNTYVNTTL [TEK_Y1102_K1100N] | 20.6
KLADMYGGGED [CDH1_Y876] | 0.812
WTAHSYRMGSA [ARHGEF7_Y785_T790A] | 0.96
PGPPGYCDSSH [COL12A1_Y3043_Q3048H] | 1.08
SIKDKYVTAVY [KCNH2_Y611_L615V] | 0.808
TKVTFYKQPMF [GBA_Y451_D448V] | 0.777
AHDGEYGAEAL [HBA1_Y25_A22D] | 0.83
AELKLYSGAQT [ZAP70_Y178_R175L] | 0.679
YECKWYIPLTD [BCR_Y756_D752E] | 0.704
WFPANYVKLLN [ITSN1_Y1132_S1137N] | 0.919
GGGMIYPLDLF | 0.959
EIVHRYVELLD [AP1S3_Y87] | 0.91
ISKKIYDPIHD [CTNNA3_Y614_T616P] | 0.691
NIKKEYTKMVQ [PMS2_Y181_A182T] | 0.983
LSQDVYEEDSF [RET_Y900_R897Q_YF] | 0.83
TIMTDYNPNFC [ALK_Y1092_YF] | 0.999

Molecular target: SHP2-C SH2
Experiment: as above

Sequence | SH2 binding enrichment
ERPGVHTNVVE [F11_Y608_Y608H] | 0.605
NMSRIYSTTKV [ACE_Y151_A154T] | 1.06
QDRTYYERVRT [SPEN_Y633_S635R] | 2.04
KMMGRYEMFAR [UPB1_Y362_T359M_YF] | 0.973
IMVFVYSRVFQ [ADRB2_Y219] | 0.794
LIDGFYRLTED [JAK2_Y373_A377E_YF] | 0.678
KMKGDYFCFLA [YWHAG_Y130_R132C_YF] | 0.7
RNIQQCNSFVS [PRKAR1A_Y373_Y373C] | 0.8
GLIPAYHRFIM [NMNAT1_Y64_V67F] | 1.37
CPFNLYAEQLS [HGD_Y40_YF] | 0.708
RISPEYKQNEI [GJB1_Y243_L239I] | 1.15
GDPTEYYITAI [IGSF22_Y501_S503I] | 0.478
RLGVTYEQALA [MAP2_Y996_G991R] | 0.539
YLQEIYNSNNQ [FGG_Y140] | 0.77
LNRAGYCDALE [MTUS1_Y151_C148R] | 0.773
TLQIMYGCDVG [HLA-A_Y123_I119L] | 0.577
EPNSRYTYKLE [USH2A_Y3745] | 0.768

Sequence | SH2 binding enrichment
EERNTYVNTTL [TEK_Y1102_K1100N] | 1.22
KLADMYGGGED [CDH1_Y876] | 0.748
WTAHSYRMGSA [ARHGEF7_Y785_T790A] | 0.794
PGPPGYCDSSH [COL12A1_Y3043_Q3048H] | 0.671
SIKDKYVTAVY [KCNH2_Y611_L615V] | 0.664
TKVTFYKQPMF [GBA_Y451_D448V] | 0.737
AHDGEYGAEAL [HBA1_Y25_A22D] | 0.563
AELKLYSGAQT [ZAP70_Y178_R175L] | 0.637
YECKWYIPLTD [BCR_Y756_D752E] | 0.665
WFPANYVKLLN [ITSN1_Y1132_S1137N] | 2.22
GGGMIYPLDLF | 0.562
EIVHRYVELLD [AP1S3_Y87] | 1.11
ISKKIYDPIHD [CTNNA3_Y614_T616P] | 0.648
NIKKEYTKMVQ [PMS2_Y181_A182T] | 0.456
LSQDVYEEDSF [RET_Y900_R897Q_YF] | 0.687
TIMTDYNPNFC [ALK_Y1092_YF] | 0.674

Molecular target: c-Src SH2
Experiment: as above

Sequence | SH2 binding enrichment
ERPGVHTNVVE [F11_Y608_Y608H] | 0.491
NMSRIYSTTKV [ACE_Y151_A154T] | 0.396
QDRTYYERVRT [SPEN_Y633_S635R] | 2.47
KMMGRYEMFAR [UPB1_Y362_T359M_YF] | 1.65
IMVFVYSRVFQ [ADRB2_Y219] | 0.591
LIDGFYRLTED [JAK2_Y373_A377E_YF] | 0.661
KMKGDYFCFLA [YWHAG_Y130_R132C_YF] | 0.668
RNIQQCNSFVS [PRKAR1A_Y373_Y373C] | 0.572
GLIPAYHRFIM [NMNAT1_Y64_V67F] | 1.44
CPFNLYAEQLS [HGD_Y40_YF] | 0.645
RISPEYKQNEI [GJB1_Y243_L239I] | 0.412
GDPTEYYITAI [IGSF22_Y501_S503I] | 0.374
RLGVTYEQALA [MAP2_Y996_G991R] | 0.871
YLQEIYNSNNQ [FGG_Y140] | 0.51
LNRAGYCDALE [MTUS1_Y151_C148R] | 0.727
TLQIMYGCDVG [HLA-A_Y123_I119L] | 0.546
EPNSRYTYKLE [USH2A_Y3745] | 0.663

Sequence | SH2 binding enrichment
EERNTYVNTTL [TEK_Y1102_K1100N] | 1.45
KLADMYGGGED [CDH1_Y876] | 0.558
WTAHSYRMGSA [ARHGEF7_Y785_T790A] | 0.545
PGPPGYCDSSH [COL12A1_Y3043_Q3048H] | 0.498
SIKDKYVTAVY [KCNH2_Y611_L615V] | 0.48
TKVTFYKQPMF [GBA_Y451_D448V] | 0.453
AHDGEYGAEAL [HBA1_Y25_A22D] | 0.493
AELKLYSGAQT [ZAP70_Y178_R175L] | 0.518
YECKWYIPLTD [BCR_Y756_D752E] | 0.477
WFPANYVKLLN [ITSN1_Y1132_S1137N] | 0.646
GGGMIYPLDLF | 0.556
EIVHRYVELLD [AP1S3_Y87] | 21.6
ISKKIYDPIHD [CTNNA3_Y614_T616P] | 0.426
NIKKEYTKMVQ [PMS2_Y181_A182T] | 0.784
LSQDVYEEDSF [RET_Y900_R897Q_YF] | 0.671
TIMTDYNPNFC [ALK_Y1092_YF] | 0.633

System: AncSZ;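 note: 11-residue human phosphosite peptides and single-mutation variants displayed on the E. coli surface, counted by deep sequencing, each peptide's frequency after selection divided by its frequency in the unselected input library; frequency after pTyr selection over input frequency; kinase dosed for 20-30% of maximal phosphorylation in three min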
Experiment: phosphorylation enrichment, bacterial display (enrichment ratio); higher = better substrate or ligand; peptides without Tyr show the background

Sequence | phosphorylation enrichment
ERPGVHTNVVE [F11_Y608_Y608H] | 0.794
NMSRIYSTTKV [ACE_Y151_A154T] | 0.441
QDRTYYERVRT [SPEN_Y633_S635R] | 0.947
KMMGRYEMFAR [UPB1_Y362_T359M_YF] | 0.538
IMVFVYSRVFQ [ADRB2_Y219] | 0.961
LIDGFYRLTED [JAK2_Y373_A377E_YF] | 1.31
KMKGDYFCFLA [YWHAG_Y130_R132C_YF] | 2.31
RNIQQCNSFVS [PRKAR1A_Y373_Y373C] | 1.28
GLIPAYHRFIM [NMNAT1_Y64_V67F] | 0.734
CPFNLYAEQLS [HGD_Y40_YF] | 1.15
RISPEYKQNEI [GJB1_Y243_L239I] | 1.15
GDPTEYYITAI [IGSF22_Y501_S503I] | 1.95
RLGVTYEQALA [MAP2_Y996_G991R] | 1.36
YLQEIYNSNNQ [FGG_Y140] | 0.918
LNRAGYCDALE [MTUS1_Y151_C148R] | 1.06
TLQIMYGCDVG [HLA-A_Y123_I119L] | 1.23
EPNSRYTYKLE [USH2A_Y3745] | 0.684

Sequence | phosphorylation enrichment
EERNTYVNTTL [TEK_Y1102_K1100N] | 0.694
KLADMYGGGED [CDH1_Y876] | 0.766
WTAHSYRMGSA [ARHGEF7_Y785_T790A] | 0.683
PGPPGYCDSSH [COL12A1_Y3043_Q3048H] | 1.09
SIKDKYVTAVY [KCNH2_Y611_L615V] | 0.565
TKVTFYKQPMF [GBA_Y451_D448V] | 0.981
AHDGEYGAEAL [HBA1_Y25_A22D] | 0.97
AELKLYSGAQT [ZAP70_Y178_R175L] | 0.877
YECKWYIPLTD [BCR_Y756_D752E] | 1.48
WFPANYVKLLN [ITSN1_Y1132_S1137N] | 1.06
GGGMIYPLDLF | 0.913
EIVHRYVELLD [AP1S3_Y87] | 0.892
ISKKIYDPIHD [CTNNA3_Y614_T616P] | 0.57
NIKKEYTKMVQ [PMS2_Y181_A182T] | 0.494
LSQDVYEEDSF [RET_Y900_R897Q_YF] | 2.12
TIMTDYNPNFC [ALK_Y1092_YF] | 0.858
